Paper PMC6753080

Tests used:
GFP-ERC1 (mouse) = test: Numbers & Brightness; cytoplasm of living COS7 cells expressing GFP-ERC1; brightness compared with monomeric and dimeric GFP; confocal time series of 300 images
[1] = biological target: 6xHis-MBP-ERC1 fusion protein (mouse); test: static light scattering; purified ERC1 on a Viskotek TDAMax system; data averaged across the protein elution volume; protein purified in 20 mM HEPES pH 7.4, 250 mM NaCl, 0.5 mM TCEP
[2] = biological target: 6xHis-MBP-ERC1 fusion protein (mouse); test: rotary shadowing electron microscopy; purified MBP-ERC1 diluted in spraying buffer (100 mM ammonium acetate, 30% glycerol), sprayed onto mica, platinum and carbon coated

Chain of GFP-ERC1 (Q99MI1 whole entry, the tested form may be a part): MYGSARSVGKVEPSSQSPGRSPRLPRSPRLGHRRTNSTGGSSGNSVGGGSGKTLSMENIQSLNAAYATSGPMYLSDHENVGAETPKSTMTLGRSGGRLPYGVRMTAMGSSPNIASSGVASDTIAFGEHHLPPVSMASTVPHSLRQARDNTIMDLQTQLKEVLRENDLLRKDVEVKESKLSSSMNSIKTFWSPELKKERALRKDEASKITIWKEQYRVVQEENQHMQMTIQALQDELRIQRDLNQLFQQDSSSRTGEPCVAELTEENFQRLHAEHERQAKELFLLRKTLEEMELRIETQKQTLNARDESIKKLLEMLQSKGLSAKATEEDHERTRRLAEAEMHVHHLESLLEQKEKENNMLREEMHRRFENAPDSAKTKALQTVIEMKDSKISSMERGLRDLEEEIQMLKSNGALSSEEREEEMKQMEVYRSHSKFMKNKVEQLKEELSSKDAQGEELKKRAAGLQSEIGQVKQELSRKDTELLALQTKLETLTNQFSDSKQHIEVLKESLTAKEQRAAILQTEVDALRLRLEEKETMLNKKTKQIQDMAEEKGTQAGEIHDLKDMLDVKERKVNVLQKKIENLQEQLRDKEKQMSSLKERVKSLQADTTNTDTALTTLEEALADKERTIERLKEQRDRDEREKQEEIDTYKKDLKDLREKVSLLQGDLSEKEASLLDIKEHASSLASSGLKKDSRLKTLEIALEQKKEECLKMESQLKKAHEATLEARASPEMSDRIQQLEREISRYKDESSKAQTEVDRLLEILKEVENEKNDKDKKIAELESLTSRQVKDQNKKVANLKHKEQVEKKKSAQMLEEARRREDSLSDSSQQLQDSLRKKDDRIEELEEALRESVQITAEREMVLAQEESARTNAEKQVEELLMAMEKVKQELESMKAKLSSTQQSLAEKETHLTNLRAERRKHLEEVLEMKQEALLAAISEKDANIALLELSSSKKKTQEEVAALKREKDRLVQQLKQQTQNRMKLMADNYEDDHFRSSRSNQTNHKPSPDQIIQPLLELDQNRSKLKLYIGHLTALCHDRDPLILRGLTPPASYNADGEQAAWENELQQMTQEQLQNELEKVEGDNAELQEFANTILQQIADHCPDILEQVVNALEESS

Row | brightness ratio to monomeric GFP (GFP-ERC1 (mouse)) | stoichiometry N (GFP-ERC1 (mouse)) | stoichiometry N [1] | stoichiometry N [2] | Substance
1 | 2.1 | 2 | – | – | GFP-ERC1 (natural protein)
2 | – | – | 2 | 2 | 6xHis-MBP-ERC1 fusion protein (natural protein)
